The experiment deals with T1, flag-tagged Gli1S84A (human, UniProt P08151 1-1106).
T1 construct: also called flag-Gli1S84A; not shown: flag tag from vector p3flag-CMV10
T1 sequence (looked up): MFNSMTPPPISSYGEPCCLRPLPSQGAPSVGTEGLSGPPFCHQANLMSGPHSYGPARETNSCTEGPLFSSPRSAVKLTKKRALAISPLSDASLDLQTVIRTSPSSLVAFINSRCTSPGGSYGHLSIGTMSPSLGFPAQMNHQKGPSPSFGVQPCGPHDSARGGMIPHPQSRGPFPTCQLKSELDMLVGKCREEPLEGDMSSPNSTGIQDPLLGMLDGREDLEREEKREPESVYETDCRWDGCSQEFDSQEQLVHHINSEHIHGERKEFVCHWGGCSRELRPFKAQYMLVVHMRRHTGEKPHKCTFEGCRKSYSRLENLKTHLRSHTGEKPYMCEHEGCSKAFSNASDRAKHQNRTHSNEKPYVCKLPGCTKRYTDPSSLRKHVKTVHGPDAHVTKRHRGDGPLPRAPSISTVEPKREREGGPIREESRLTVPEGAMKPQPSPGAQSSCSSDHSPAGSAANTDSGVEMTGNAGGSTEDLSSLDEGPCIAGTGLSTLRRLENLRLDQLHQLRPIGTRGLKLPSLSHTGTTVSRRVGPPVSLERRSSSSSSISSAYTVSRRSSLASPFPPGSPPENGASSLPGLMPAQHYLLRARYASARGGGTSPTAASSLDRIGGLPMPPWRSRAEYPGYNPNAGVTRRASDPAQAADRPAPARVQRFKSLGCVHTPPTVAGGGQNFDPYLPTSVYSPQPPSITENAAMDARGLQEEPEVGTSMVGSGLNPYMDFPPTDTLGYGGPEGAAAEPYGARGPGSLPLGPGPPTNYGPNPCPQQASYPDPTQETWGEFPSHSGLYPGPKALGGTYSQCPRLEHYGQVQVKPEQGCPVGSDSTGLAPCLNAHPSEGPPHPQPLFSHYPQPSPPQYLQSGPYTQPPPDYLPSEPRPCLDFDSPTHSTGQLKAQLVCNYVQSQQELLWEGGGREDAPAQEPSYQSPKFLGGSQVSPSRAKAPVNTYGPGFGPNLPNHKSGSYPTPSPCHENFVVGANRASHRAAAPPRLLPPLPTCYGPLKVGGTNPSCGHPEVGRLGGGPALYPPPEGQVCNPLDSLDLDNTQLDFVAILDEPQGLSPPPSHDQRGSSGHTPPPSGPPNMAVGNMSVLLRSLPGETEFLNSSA
Nature of the experiment: IP-Western, flag-tagged Gli1S84A transfected into BE3 cells. Here is the method:
FIGS. 13A-13K. related to FIG. 5. […] FIG. 13A. Luciferase assay of Gli reporter in the stable clones treated by TNFα alone (5 ng/mL) or TNFα plus rapamycin (100 nM). Error bars represent SD (n=3). FIG. 13B. Gli1 immunofluorescence staining in several BE3 stable clones with TNFα treatment. Scale bar=100 μm for original picture and 25 μm for inset. FIG. 13C. The regulation of p-Gli1 by TNFα alone or together with rapamycin (10, 50, and 100 nM) in the BE3 stable clone. FIG. 13D. MTT assay of the various Gli1 stable clones. All cells were counted, and then 3,000 cells were seeded in each well of a 96-well plate. Error bars represent SD (n=3). FIG. 13E. Soft-agar assay of the various Gli1 stable clones. All cells were counted, and then 1,000 cells were mixed with agarose for each well of a 24-well plate. Left, representative microscopic images. Right, quantitation of colony formation. Error bars represent SD (n=3). FIG. 13F. Invasion assay of the various Gli1 stable clones. All cells were counted, and then 1,000 cells were seeded on matrigel in transwells. Left, representative microscopic images from the bottom side of transwell membranes. Right, quantitation of invasive cells. Error bars represent SD (n=3). FIGS. 13G-13I. The assays of MTT (G), soft agar (H), and invasion (I) using the BE3 stable clones treated with TNFα.

B1: SuFu (other, human, UniProt Q9UMX1 1-484, looked up)
chain: MAELRPSGAPGPTAPPAPGPTAPPAFASLFPPGLHAIYGECRRLYPDQPNPLQVTAIVKYWLGGPDPLDYVSMYRNVGSPSANIPEHWHYISFGLSDLYGDNRVHEFTGTDGPSGFGFELTFRLKRETGESAPPTWPAELMQGLARYVFQSENTFCSGDHVSWHSPLDNSESRIQHMLLTEDPQMQPVQTPFGVVTFLQIVGVCTEELHSAQQWNGQGILELLRTVPIAGGPWLITDMRRGETIFEIDPHLQERVDKGIETDGSNLSGVSAKCAWDDLSRPPEDDEDSRSICIGTQPRRLSGKDTEQIRETLRRGLEINSKPVLPPINPQRQNGLAHDRAPSRKDSLESDSSTAIIPHELIRTRQLESVHLKFNQESGALIPLCLRGRLLHGRHFTYKSITGDMAITFVSTGVEGAFATEEHPYAAHGPWLQILLTEEFVEKMLEDLEDLTSPEEFKLPKEYSWPEKKLKVSILPDVVFDSPLH
notes: also called suppressor of fused
For the molecule B1, the binding result is on record as “binds”.

The values are drawn from US20150017651A1 (University of Texas, published 2015).
